Data taken from article PMC6080600 (Nature structural & molecular biology, 2018).

Biological target: the molecule itself
Assay: cryo-EM structure

B1: zebrafish RAG1 (recombination-activating gene 1 protein), residues 271-1031, with N-terminal 6xHis-MBP tag (domain or fragment, UniProt O13033 271-1031, looked up)
chain: RCQRDHLSTKLIPTEVPADLIRAVTCQVCDHLLSDPVQSPCRHLFCRLCIIRYTHALGPNCPTCNQHLNPSHLIKPAKFFLATLSSLPLLCPSEECSDWVRLDSFREHCLNHYREKESQEEQTPSEQNLDGYLPVNKGGRPRQHLLSLTRRAQKHRLRDLKNQVKTFAEKEEGGDVKSVCLTLFLLALRAGNEHKQADELEAMMQGRGFGLHPAVCLAIRVNTFLSCSQYHKMYRTVKATSGRQIFQPLHTLRNAEKELLPGFHQFEWQPALKNVSTSWDVGIIDGLSGWTVSVDDVPADTISRRFRYDVALVSALKDLEEDIMEGLRERALDDSMCTSGFTVVVKESCDGMGDVSEKHGSGPAVPEKAVRFSFTIMSISIRLEGEDDGITIFQEQKPNSELSCRPLCLMFVDESDHETLTAILGPVVAERKAMMESRLIISVGGLLRSFRFFFRGTGYDEKMVREMEGLEASGSTYICTLCDSTRAEASQNMVLHSITRSHDENLERYEIWRKNPFSESADELRDRVKGVSAKPFMETQPTLDALHCDIGNATEFYKIFQDEIGEVYQKPNPSREERRRWRSTLDKQLRKKMKLKPVMRMNGNYARRLMTREAVEAVCELVPSEERREALLKLMDLYLQMKPVWRSTCPSRDCPDQLCQYSYNSQQFADLLSSMFKYRYDGKITNYLHKTLAHVPEIVERDGSIGAWASEGNESGNKLFRRFRKMNARQSKTFELEDILKHHWLYTSKYLQKFMEAHKNS
stoichiometry N: 2
